Experimental data from US20180327746, “Alpha-AMYLASE-BINDING NUCLEIC ACID MOLECULE AND USE THEREOF” (NEC Solution Innovators, Ltd., published 2018).

How the values were obtained:
alpha-amylase [1] = target: T1, alpha-amylase (Homo sapiens, UniProt P0DUB6 P0DUB6:16-511); test: SPR; SPR buffer with 1 mM MgCl2, pH 7.4; Chi2 3.85; conditions: tags: none stated; commercial human alpha-amylase, Lee Biosolutions; label: 3' poly(dA)20 captured on biotin-poly(dT)20
T1 sequence: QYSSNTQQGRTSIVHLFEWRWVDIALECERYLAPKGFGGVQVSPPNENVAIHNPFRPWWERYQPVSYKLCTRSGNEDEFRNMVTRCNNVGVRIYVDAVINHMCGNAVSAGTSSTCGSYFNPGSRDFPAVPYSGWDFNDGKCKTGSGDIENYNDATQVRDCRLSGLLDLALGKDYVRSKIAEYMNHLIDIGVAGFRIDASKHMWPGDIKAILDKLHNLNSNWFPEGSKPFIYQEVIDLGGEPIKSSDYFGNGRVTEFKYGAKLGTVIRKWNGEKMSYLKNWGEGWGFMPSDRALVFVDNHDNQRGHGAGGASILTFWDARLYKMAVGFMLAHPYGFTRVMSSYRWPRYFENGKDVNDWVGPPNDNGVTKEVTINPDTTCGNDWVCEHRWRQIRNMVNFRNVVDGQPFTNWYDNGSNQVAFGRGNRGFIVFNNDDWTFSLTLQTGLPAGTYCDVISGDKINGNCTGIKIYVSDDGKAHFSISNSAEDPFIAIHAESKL
Description: (§1) Biotinylated poly(dT) at 5 μmol/L was injected to a flow cell of the sensor chip using ultrapure water (DDW), and the binding was allowed to proceed until the signal intensity (RU: Resonance Unit) reached about 900 RU. The biotinylated poly(dT) was prepared by biotinylating the 5′ end of 20-mer deoxythymidine. Then, the poly(dA)-added aptamer at 200 nmol/L was injected to the flow cell of the chip using an SPR buffer at a flow rate of 25 μL/min for 80 seconds, and the binding was allowed to proceed until the signal intensity reached about 800 RU. […] With 0 seconds being the start of the injection, the mean value of signal intensities from 115 seconds to 125 seconds was determined. […] Then, the value (B/A) obtained by dividing the protein binding measured value (B) by the aptamer immobilization measured value (A) was determined as a relative value (Relative Unit).
(§2) The binding ability of the aptamers was analyzed by SPR in the same manner as in Example 1, except that the concentration of the α-amylase in the specimen was set to a plurality of values. The concentration was set to 20 nmol/L, 10 nmol/L, 5 nmol/L, 2.5 nmol/L, and 1.25 nmol/L. Then, from the results obtained by the SPR analysis, the kinetic parameter and the chi-squared value were calculated.

alpha-amylase [2] = target: T1, alpha-amylase; test: SPR; SPR buffer with 1 mM MgCl2, pH 7.4; Chi2 4.17; conditions: tags: none stated; commercial human alpha-amylase, Lee Biosolutions; label: 3' poly(dA)20 captured on biotin-poly(dT)20
Description: as §1, §2

alpha-amylase [3] = target: T1, alpha-amylase; test: SPR; SPR buffer with 1 mM MgCl2, pH 7.4; Chi2 31.8; text says all Kd 17 nM or less; conditions: tags: none stated; commercial human alpha-amylase, Lee Biosolutions; label: 3' poly(dA)20 captured on biotin-poly(dT)20
Description: Then, the poly(dA)-added aptamer at 200 nmol/L was injected to the flow cell of the chip using an SPR buffer at a flow rate of 25 μL/min for 80 seconds, and the binding was allowed to proceed until the signal intensity reached about 800 RU. […] Subsequently, the specimen was injected using the SPR buffer at a flow rate of 50 μL/min for 120 seconds, followed by washing performed by flowing the SPR buffer under the same conditions for 300 seconds. The concentration of the human α-amylase in the specimen was set to 400 nmol/L. Signal intensity measurement was performed concurrently with the injection of the specimen and the washing with the SPR buffer. With 0 seconds being the start of the injection, the mean value of signal intensities from 115 seconds to 125 seconds was determined. […] Then, the value (B/A) obtained by dividing the protein binding measured value (B) by the aptamer immobilization measured value (A) was determined as a relative value (Relative Unit).
as §2

alpha-amylase [4] = target: T1, alpha-amylase; test: SPR; SPR buffer with 1 mM MgCl2, pH 7.4; Chi2 23.87; conditions: tags: none stated; commercial human alpha-amylase, Lee Biosolutions; label: 3' poly(dA)20 captured on biotin-poly(dT)20
Description: as §1, §2

alpha-amylase [5] = target: T1, alpha-amylase; test: SPR; SPR buffer with 1 mM MgCl2, pH 7.4; Chi2 3.26; conditions: tags: none stated; commercial human alpha-amylase, Lee Biosolutions; label: 3' poly(dA)20 captured on biotin-poly(dT)20
Description: as §1, §2

alpha-amylase [6] = target: T1, alpha-amylase; test: SPR; SPR buffer with 1 mM MgCl2, pH 7.4; Chi2 24.55; conditions: tags: none stated; commercial human alpha-amylase, Lee Biosolutions; label: 3' poly(dA)20 captured on biotin-poly(dT)20
Description: as §1, §2

alpha-amylase [7] = target: T1, alpha-amylase; test: SPR; SPR buffer with 1 mM MgCl2, pH 7.4; Chi2 4.3; conditions: tags: none stated; commercial human alpha-amylase, Lee Biosolutions; label: 3' poly(dA)20 captured on biotin-poly(dT)20
Description: as §1, §2

alpha-amylase [8] = target: T1, alpha-amylase; test: SPR; SPR buffer with 1 mM MgCl2, pH 7.4; Chi2 5.05; conditions: tags: none stated; commercial human alpha-amylase, Lee Biosolutions; label: 3' poly(dA)20 captured on biotin-poly(dT)20
Description: as §1, §2

alpha-amylase [9] = target: T1, alpha-amylase; test: SPR; SPR buffer with 1 mM MgCl2, pH 7.4; Chi2 10.58; conditions: tags: none stated; commercial human alpha-amylase, Lee Biosolutions; label: 3' poly(dA)20 captured on biotin-poly(dT)20
Description: as §1, §2

chromogranin A (CgA) = target: T2, chromogranin A (CgA) (Homo sapiens, UniProt P10645 P10645:19-457); test: capillary electrophoresis specificity control; conditions: tags: N-terminal His-tag; full length, Creative BioMart CHGA-26904TH; label: 5' TYE665
T2 sequence: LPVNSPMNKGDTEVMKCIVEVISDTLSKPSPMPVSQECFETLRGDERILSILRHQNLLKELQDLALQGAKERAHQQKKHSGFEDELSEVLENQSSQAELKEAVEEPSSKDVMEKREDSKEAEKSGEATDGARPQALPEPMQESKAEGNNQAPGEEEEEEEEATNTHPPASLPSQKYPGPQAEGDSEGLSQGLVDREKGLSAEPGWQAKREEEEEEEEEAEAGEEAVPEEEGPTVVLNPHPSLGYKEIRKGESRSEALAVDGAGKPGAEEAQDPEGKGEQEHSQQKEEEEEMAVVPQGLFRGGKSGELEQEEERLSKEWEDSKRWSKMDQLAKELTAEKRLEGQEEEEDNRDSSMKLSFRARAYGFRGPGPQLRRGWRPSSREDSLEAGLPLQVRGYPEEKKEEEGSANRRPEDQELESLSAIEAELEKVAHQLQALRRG
Description: (§3) Reaction solutions containing the labeled aptamer (SEQ ID NO: 1) were prepared. Each of the reaction solutions was subjected to CAE under the following conditions. The reaction solution was caused to migrate while separating the components therefrom, and the fluorescence at a maximum absorption wavelength (665 nm) of the fluorescent substance was measured. As the reaction solutions, the following four types of reaction solutions were used: a reaction solution 1 containing the labeled aptamer only; a reaction solution 2 containing the labeled aptamer and the α-amylase; a reaction solution 3 containing the labeled aptamer and the saliva; and a reaction solution 4 containing the labeled aptamer as the negative control and the saliva. In each of the reaction solutions, the concentration of the labeled aptamer was 200 nmol/L. In the reaction solution 2, the concentration of the α-amylase was 2 μmol/L. In the reaction solutions 3 and 4, the concentration of the saliva was 10%. The reminder of each of the reaction solutions was a buffer solution. The composition of the buffer solution was as follows: 40 mmol/L HEPES (pH 7.5), 125 mmol/L NaCl, 5 mmol/L KCl, and 1 mmol/L MgCl₂.
Preparation of the reaction solution 2 and the binding ability analysis by CAE were carried out in the same manner as in the above item (3), except that the labeled aptamers (SEQ ID NOs: 1, 2, 3, and 19) were used. Further, in order to examine the specificity of the labeled aptamers to the α-amylase, the binding ability analysis by CAE was performed in the same manner as in the case where the above-described reaction solution 2 was used, except that, instead of the α-amylase, human chromogranin A (CgA, recombinant full length protein, Creative BioMart, #CHGA-26904TH) or human IgA (secretory, Biomedicals, LLC-Cappel Products, #55905), each having a His-tag fused at the N terminus were used.

alpha-amylase [10] = target: T1, alpha-amylase; test: capillary electrophoresis; 200 nM aptamer, 2 uM amylase, 40 mM HEPES pH 7.5, 1 mM MgCl2; conditions: tags: none stated; commercial human alpha-amylase, Lee Biosolutions; label: 5' TYE665
Description: as §3

B1: Amy_258KK10R8m1 (ssDNA)
DNA: GGTTACGCCCAGGACACATTTCAAAAGATGATGGCATACGTAAAGGGTCGAGGTAAGCTCGGTCTCCTCGGATAATCAAAAAAAAAAAAAAAAAAAA
modifications: KK10 modified T (formula 2) at double-underlined T, i.e. T 3' of the 5' primer region
alpha-amylase [1]
  Kd: 2.72 nM

B2: AML1243KR8m1s65_FW_s20 (ssDNA)
DNA: TACCTTAACGCCGCCTATTGTGAACGACGTGAATAGTGTTTGTGGGTCCGGAGTTGCACCCGAAAAAAAAAAAAAAAAAAAA
modifications: KS9 modified T (formula 1) at underlined T, i.e. T 3' of the 5' primer region
alpha-amylase [2]
  Kd: 0.68 nM

B3: AML1243KR8m3 (ssDNA)
DNA: GGATACCTTAACGCCGCCTATTGCGAGGTGTGGCTAGTCGTTATAGGTCCACCGAGTTGCACCCGTCTCGAAATCAAAAAAAAAAAAAAAAAAAA
modifications: KS9 modified T (formula 1) at underlined T, i.e. T 3' of the 5' primer region
alpha-amylase [3]
  Kd: 19.9 nM

B4: AML1243KR8m2 (ssDNA)
DNA: GGATACCTTAACGCCGCCTATTGCTATGAGTAGTGTTTGTAGGTCTGGCATGCGAGTTGCACCCGTCTCGAAATCAAAAAAAAAAAAAAAAAAAA
modifications: KS9 modified T (formula 1) at underlined T, i.e. T 3' of the 5' primer region
alpha-amylase [4]
  Kd: 2.6 nM

B5: AML1243KR8m1s58_FW_s20 (ssDNA)
DNA: TACCTTAACGCCGCCTATTGTGAACGACGTGAATAGTGTTTGTGGGTCCGGAGTTAAAAAAAAAAAAAAAAAAAA
modifications: KS9 modified T (formula 1) at underlined T, i.e. T 3' of the 5' primer region
alpha-amylase [5]
  Kd: 0.707 nM

B6: AML1243KR8m2s49Fw_s15 (ssDNA)
DNA: TAACGCCGCCTATTGCTATGAGTAGTGTTTGTAGGTCTGGCAAAAAAAAAAAAAAAAAAAA
modifications: KS9 modified T (formula 1) at underlined T, i.e. T 3' of the 5' primer region
alpha-amylase [6]
  Kd: 2.66 nM

B7: AML1243KR8m1 (ssDNA)
DNA: GGATACCTTAACGCCGCCTATTGTGAACGACGTGAATAGTGTTTGTGGGTCCGGAGTTGCACCCGTCTCGAAATCAAAAAAAAAAAAAAAAAAAA
modifications: KS9 modified T (formula 1) at underlined T, i.e. T 3' of the 5' primer region
alpha-amylase [7]
  Kd: 0.805 nM

B8: Amy_258KK10R8m2 (ssDNA)
DNA: GGTTACGCCCAGGACACATTTCATTGATGGCATACTAAGGGTCGAGGAATTCGTAAGCTCGGTCTCCTCGGATAATCAAAAAAAAAAAAAAAAAAAA
modifications: KK10 modified T (formula 2) at double-underlined T, i.e. T 3' of the 5' primer region
alpha-amylase [8]
  Kd: 2.3 nM

B9: AML1243KR8m1_KS9-3_mini (ssDNA)
DNA: GTGAACGACGTGAATAGTGTTTGTGGGTCCGGAGTTAAAAAAAAAAAAAAAAAAAA
modifications: KS9 modified T (formula 1) at all T
alpha-amylase [9]
  Kd: 0.607 nM

B10: TYE665-AML1243KR8m1 (ssDNA)
DNA: GGATACCTTAACGCCGCCTATTGTGAACGACGTGAATAGTGTTTGTGGGTCCGGAGTTGCACCCGTCTCGAAATC
modifications: KS9 modified T (formula 1) at underlined T, i.e. T 3' of the 5' primer region
Chromogranin A (CgA)
  binding result: no binding
alpha-amylase [10]
  binding result: binds
